# The RNAGym collection of RNA variant scans (doi:10.7554/elife.80360)
# B1: Twister Ribozyme (parent)
# chain: AACACUGCCAAUGCCGGUCCCAAGCCCGGAUAAAAGUGGAGGGGGCGG
# Variants of: B1
# Test: self-cleavage, relative activity (ratio to wild type); higher = more cleavage; co-transcriptional
row,Variant,self-cleavage
1,U12C G41A,0.577
2,U12C G41C,0.264
3,U12C G43C,0.145
4,U12C G44C,0.932
5,U12C G45A,0.788
6,U12C G47A,0.785
7,U12C U18G,0.0285
8,U12C U31A,0.78
9,U12C U31G,0.954
10,U12C U37C,0.624
11,U12G A22C,1.13
12,U12G A22U,0.706
13,U12G A23C,0.401
14,U12G A23U,0.566
15,U12G A30C,0.969
16,U12G A32C,0.9
17,U12G A32G,0.914
18,U12G A32U,0.958
19,U12G A33C,0.685
20,U12G A34G,0.608
21,U12G A34U,0.701

row,Variant,self-cleavage
1,U12G A35C,0.89
2,U12G A35U,0.848
3,U12G A40C,0.261
4,U12G A40U,0.279
5,U12G C15U,0.649
6,U12G C19U,0.998
7,U12G C20G,0.249
8,U12G C20U,0.725
9,U12G C25A,0.256
10,U12G C25U,0.675
11,U12G C26G,0.451
12,U12G C26U,0.407
13,U12G C46A,0.706
14,U12G C46U,0.866
15,U12G G13A,1.14
16,U12G G13C,1.05
17,U12G G13U,0.836
18,U12G G16C,0.753
19,U12G G17A,0.577
20,U12G G17C,0.0934
21,U12G G24U,0.167

row,Variant,self-cleavage
1,U12G G28C,0.344
2,U12G G29U,0.823
3,U12G G38A,0.771
4,U12G G39A,0.477
5,U12G G39C,0.137
6,U12G G39U,0.247
7,U12G G41A,0.658
8,U12G G41C,0.315
9,U12G G41U,0.783
10,U12G G42A,0.494
11,U12G G42U,0.531
12,U12G G43C,0.274
13,U12G G43U,0.454
14,U12G G45C,0.288
15,U12G G45U,0.419
16,U12G G47C,0.528
17,U12G G48U,0.789
18,U12G U18A,0.46
19,U12G U18C,0.437
20,U12G U31A,0.746
21,U12G U31C,0.907

row,Variant,self-cleavage
1,U12G U31G,0.834
2,U12G U37C,0.593
3,U12G U37G,0.653
4,G13A,1.05
5,G13A A22C,1.05
6,G13A A22U,0.424
7,G13A A23C,0.093
8,G13A A30G,0.742
9,G13A A32C,0.689
10,G13A A33C,0.825
11,G13A A33G,0.943
12,G13A A34U,0.64
13,G13A A35C,1.02
14,G13A A35G,0.203
15,G13A A35U,0.978
16,G13A A40G,0.185
17,G13A C14A,0.685
18,G13A C15G,0.118
19,G13A C15U,0.579
20,G13A C19A,0.113
